The values below come from patent US20240182582A1 (Janssen / Centocor, published 2024).

The target in assay [1] is NKp46 on NKL cells / NK cells (human, UniProt O76036 22-304). The assay can be described thus: cell-based or functional assay.
A further assay concerns the target T1, N46W3 (NKp46 D1) (UniProt O76036 22-120, limits assumed).
T1 construct: domain: D1
The assay can be described thus: binding kinetics, method not named.

T1 sequence (O76036 22-120 limits assumed): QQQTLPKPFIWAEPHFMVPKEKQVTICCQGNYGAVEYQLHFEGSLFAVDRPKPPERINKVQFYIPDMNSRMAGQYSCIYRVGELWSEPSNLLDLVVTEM
NKp46 on NKL cells / NK cells, sequence (O76036 22-304): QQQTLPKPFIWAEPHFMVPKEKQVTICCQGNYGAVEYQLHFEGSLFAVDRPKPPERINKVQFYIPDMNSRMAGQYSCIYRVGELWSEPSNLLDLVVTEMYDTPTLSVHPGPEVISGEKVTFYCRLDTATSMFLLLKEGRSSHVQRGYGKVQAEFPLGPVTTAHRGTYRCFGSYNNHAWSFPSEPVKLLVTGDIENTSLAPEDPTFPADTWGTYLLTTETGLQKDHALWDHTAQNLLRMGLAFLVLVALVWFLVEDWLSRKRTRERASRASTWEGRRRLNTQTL

B1: N46BB10.AFU (bispecific antibody, human IgG1, kappa)
heavy: QLQLQESGPGPVRPSETLSLTCTVSGDSIRSSSYYWGWIRQPPGKGLDWIGSIYYTGSTYYNPSLMSRVTISVDTSKNQFSLKLSSVTAADTAVYYCASPGYSSGWSIDYWGQGTLVTVSSASTKGPSVFPLAPSSKSTSGGTAALGCLVKDYFPEPVTVSWNSGALTSGVHTFPAVLQSSGLYSLSSVVTVPSSSLGTQTYICNVNHKPSNTKVDKKVEPKSCDKTHTCPPCPAPELLGGPSVFLFPPKPKDTLMISRTPEVTCVVVDVSHEDPEVKFNWYVDGVEVHNAKTKPREEQYNSTYRVVSVLTVLHQDWLNGKEYKCKVSNKALPAPIEKTISKAKGQPREPQVYTLPPSREEMTKNQVSLWCLVKGFYPSDIAVEWESNGQPENNYKTTPPVLDSDGSFFLYSKLTVDKSRWQQGNVFSCSVMHEALHNRFTQKSLSLSPGK
light: DIQLTQSPSFLSASVGDRVTITCRASQGISSYLAWYQQKPGKAPKLLIYVASTLQSGVPSRFSGSGSGTEFTLTISSLQPEDFATYYCQQLNSYPRMTFGGGTKVEIKRTVAAPSVFIFPPSDEQLKSGTASVVCLLNNFYPREAKVQWKVDNALQSGNSQESVTEQDSKDSTYSLSSTLTLSKADYEKHKVYACEVTHQGLSSPVTKSFNRGEC
chain: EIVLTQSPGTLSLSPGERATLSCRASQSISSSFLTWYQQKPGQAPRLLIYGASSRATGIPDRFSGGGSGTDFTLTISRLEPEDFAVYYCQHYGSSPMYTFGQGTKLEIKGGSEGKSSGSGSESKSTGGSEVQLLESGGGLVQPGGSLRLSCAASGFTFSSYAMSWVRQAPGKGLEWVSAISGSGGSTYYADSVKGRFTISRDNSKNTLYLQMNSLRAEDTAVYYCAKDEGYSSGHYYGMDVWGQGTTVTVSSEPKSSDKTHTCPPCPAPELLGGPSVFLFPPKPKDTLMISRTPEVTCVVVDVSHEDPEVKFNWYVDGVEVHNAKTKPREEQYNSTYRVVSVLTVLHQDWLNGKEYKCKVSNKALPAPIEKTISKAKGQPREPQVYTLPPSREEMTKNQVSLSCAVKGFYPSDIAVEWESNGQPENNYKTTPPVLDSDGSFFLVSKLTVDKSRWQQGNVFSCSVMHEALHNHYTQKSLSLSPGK
Regarding B1, in assay [1], the “EC50 of cytotoxicity (hypoxia study, PBMC on MM1R/GFP cells)” value was determined as 0.006 nM.

B2: N46B105 (antibody, V domains shown)
VH: QLQLQESGPGPVRPSETLSLTCTVSGDSIRSSSYYWGWIRQPPGKGLDWIGSIYYTGSTYYNPSLMSRVTISVDTSKNQFSLKLSSVTAADTAVYYCASPGYSSGWSIDYWGQGTLVTVSS
VL: DIQLTQSPSFLSASVGDRVTITCRASQGISSYLAWYQQKPGKAPKLLIYVASTLQSGVPSRFSGSGSGTEFTLTISSLQPEDFATYYCQQLNSYPRMTFGGGTKVEIK
notes: also called VR000044289
For B2, in the assay with N46W3 (NKp46 D1), the dissociation constant Kd was determined as 3.5 nM.
